From US20220403009A1

Assays:
[1] = biological target: SARS-CoV-2 spike protein on pseudovirus (SARS-CoV-2) (UniProt P0DTC2); assay: cell-based or functional assay
[2] = biological target: SARS-CoV-1 spike protein on HIV-based pseudovirus (SARS-CoV) (UniProt P59594); assay: cell-based or functional assay

| Substance | IC50, SARS-CoV-2 pseudovirus neutralization [1] | Fold Over IgG1 (CoV-1) By Molar [2] | Fold Over IgG1 (CoV-1) By Weight [2] | IC50, SARS-CoV-1 pseudovirus neutralization [2] |
| --- | --- | --- | --- | --- |
| CR3014 IgM + J (antibody) | > 100000 µg/mL | > 80 fold | > 13 fold | < 0.0051 µg/mL |
| CR3014 IgG1 (antibody) | > 100000 µg/mL | 1 fold | 1 fold | 0.068 µg/mL |
